In patent US20190309087A1:
Each block holds one molecule with its values, some of them ahead of it.

Assays:
[1] = biological target: recombinant mouse CD34 (Sino Biological) (mouse) (UniProt Q64314); assay: ELISA on coated recombinant mouse CD34, LNPs pre-incubated with Triton X-100, anti-Rat HRP detection
[2] = biological target: recombinant mouse CD34 (Sino Biological) (mouse) (UniProt Q64314); assay: ELISA on coated recombinant mouse CD34
[3] = biological target: Rat IgG2a (RIg) immobilized on the Biacore chip (Rattus norvegicus (Rat)) (UniProt P20760); assay: SPR, Biacore T-200, RIg immobilized on CM5 chip, mASSET 0 to 30 nM
[4] = biological target: Rat IgG2a (RIg), BioXcell clone FIB504; assay: ELISA, plates coated with 5 µg/ml RIg, ASSET in serial dilutions, anti-His detection
[5] = biological target: anti-CD34 RIg (clone mec14.7) held by ASSET on TsiLNPs; assay: share of added RIg held on ASSET LNPs, gel quantification after purification
[6] = biological target: Rat IgG2a (RIg), BioXcell clone FIB504; assay: ELISA on coated RIg of ASSET LNPs after dialysis, LNPs pre-incubated with 0.2% Triton X-100

Sequence of UniProt Q64314 (Q64314 35-287 limits assumed): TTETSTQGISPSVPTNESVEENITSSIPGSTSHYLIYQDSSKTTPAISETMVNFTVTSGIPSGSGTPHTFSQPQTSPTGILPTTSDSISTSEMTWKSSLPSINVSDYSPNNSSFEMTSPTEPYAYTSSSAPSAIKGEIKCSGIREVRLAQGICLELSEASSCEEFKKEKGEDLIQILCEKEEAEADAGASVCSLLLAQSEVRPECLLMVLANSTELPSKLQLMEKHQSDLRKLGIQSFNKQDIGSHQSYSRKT
Sequence of UniProt P20760 (P20760 whole entry): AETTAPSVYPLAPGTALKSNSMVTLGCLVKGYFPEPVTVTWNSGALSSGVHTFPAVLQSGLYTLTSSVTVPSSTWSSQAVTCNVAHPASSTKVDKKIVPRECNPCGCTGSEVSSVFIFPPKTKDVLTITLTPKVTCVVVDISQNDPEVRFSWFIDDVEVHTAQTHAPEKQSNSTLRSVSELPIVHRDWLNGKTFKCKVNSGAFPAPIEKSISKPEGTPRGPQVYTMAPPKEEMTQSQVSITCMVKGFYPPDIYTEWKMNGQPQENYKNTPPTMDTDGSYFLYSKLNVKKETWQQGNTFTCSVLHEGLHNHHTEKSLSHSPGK

Kd [1]: 0.24 nM
Molecule: anti-CD34 RIg (clone mec14.7) held by ASSET on TsiLNPs (antibody)

fold loss in activity against RIg bound to the LNP by ASSET [2]: 4.5 fold
Kd [1]: 1.08 nM
Molecule: anti-CD34 RIg (clone mec14.7) chemically conjugated to LNPs (ccTsiLNPs) (antibody)

Kd [3]: 22.7 nM
B1: mutated (m)ASSET, fusion protein containing a mutated NlpA motif (scFv, not shown: small tags and cut ends)
scFv: EVQLLQSGPELVKPGASVKIPCKASGYTFTDYNMDWVKQSHEKSLEWIGYINPYSGDTIYNHKFKDKATLTVYKSSNIAYMELRSLTSEDTAVYYCARGGYDYGDHWGQGTTLTVSSGSAGGGGSGGGGSGGGGSDIKMTQSPSSMYASLGERVTITCKASQDINSYLSWFQQKPGKSPKTLIYRANRLVDGVPSRFSGSGSGQDYSLTISSLEYEDMGIYYCLQDDEFPRTFGGGTKLEIK

Kd [4]: 10 nM
IgG incorporation [5]: 98.3%
functionality maintained after incorporation into LNPs [6]: 95.8%
B2: ASSET (Anchored Secondary scFv Enabling Targeting) (scFv, part only; not given: mCherry fusion and junctions, part only)
scFv, part: CDQSSSEVQLLQSGPELVKPGASVKIPCKASGYTFTDYNMDWVKQSHEKSLEWIGYINPYSGDTIYNHKFKDKATLTVYKSSNIAYMELRSLTSEDTAVYYCARGGYDYGDHWGQGTTLTVSSGSAGGGGSGGGGSGGGGSDIKMTQSPSSMYASLGERVTITCKASQDINSYLSWFQQKPGKSPKTLIYRANRLVDGVPSRFSGSGSGQDYSLTISSLEYEDMGIYYCLQDDEFPRTFGGGTKLEIKHHHHHH
modifications: N-terminal cysteine of the CDQSSS NlpA motif is lipid-acylated (bacterial lipidation)
